T1: fusion protein of glutathione S transferase and human DDR2 cytosolic tyrosine kinase domain (GST-DDR2 CKD), expressed alone in sf9 cells
T1 sequence: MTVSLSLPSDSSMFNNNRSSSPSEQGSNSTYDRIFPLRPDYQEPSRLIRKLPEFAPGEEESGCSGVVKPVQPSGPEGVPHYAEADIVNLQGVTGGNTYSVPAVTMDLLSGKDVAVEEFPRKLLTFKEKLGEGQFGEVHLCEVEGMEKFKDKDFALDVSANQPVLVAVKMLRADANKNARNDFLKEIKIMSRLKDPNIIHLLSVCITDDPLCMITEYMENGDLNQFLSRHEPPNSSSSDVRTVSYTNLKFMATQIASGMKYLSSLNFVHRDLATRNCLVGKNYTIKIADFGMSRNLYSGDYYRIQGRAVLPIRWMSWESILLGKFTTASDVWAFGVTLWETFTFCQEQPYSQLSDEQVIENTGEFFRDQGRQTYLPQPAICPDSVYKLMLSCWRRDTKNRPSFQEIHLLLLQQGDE

B1: p-GST-DDR2 CKD by Src: tyrosine phosphorylation-induced GST-DDR2 CKD obtained by co-expression with the c-Src protein in sf 9 cells (protein)
chain: T1 sequence
modifications: left off: a dimerising Fc or GST
notes: tyrosine phosphorylation-induced GST-DDR2 CKD obtained by co-expression with the c-Src protein in sf 9 cells

Tests used:
[1] = tested on: T1, fusion protein of glutathione S transferase and human DDR2 cytosolic tyrosine kinase domain (GST-DDR2 CKD), expressed alone in sf9 cells
shc protein = assay: in vitro shc binding assay using HSC T6 cell lysate; set-up: species or system human
Text: One of the characteristic features of tyrosine phosphorylated cytosolic domain of receptor tyrosine kinase is to recruit the signaling proteins such as shc protein. This complex formation between the cytosolic domain of receptor tyrosine kinase protein and signaling proteins such as shc is important for the cellular transmission of the activated receptor tyrosine kinase signal. It has been observed in HSC T6 liver stellate cells and fibroblast cells that shc, one of signaling protein containing PTB domain binds to activated DDR2 cytosolic domain. The present inventors examined whether the invented DDR2 cytosolic tyrosine kinase domain protein with induced tyrosine phosphorylation for example, by the method of co-expression with c-Src in sf 9 cells or with the mutation of tyrosine 740 to phenylalanine 740 can be used for in vitro shc binding assay. In FIG. 15, the purified GST-DDR2 cytosolic domain from sf 9 cells with and without Src coinfection were used for in vitro shc binding assay. Each protein was subject to autophosphorylation reaction at 30° C. for 15 min, and a mock-autophosphylation reaction as well where gamma-S-ATP was used instead of ATP in the reaction buffer before they were used for in vitro shc binding assay using HSC T6 cell lysate.
The purified GST-DDR2 CKD proteins without or with tyrosine phosphorylation by Src were subject to in vitro shc binding assay after autophosphorylation reaction or a mock-autophosphorylation reaction as described in materials and methods. The bound proteins on the glutathione bead were eluted by boiling in 1× lameli buffer. The presence of shc in the eluate was measured by western blotting using shc antibody and the accumulation of tyrosine phosphorylation at GST-DDR2 CKD proteins resulted from autophosphorylation was shown by western blotting using P-tyro antibody. The presence of an equal amount of GST-DDR2 CKD proteins in each eluate was confirmed by CBB staining. ‘Bead only’ means that no GST-DDR2 CKD protein was applied on glutathione bead as a control.
The same type of experiment was done as FIG. 15 using purified GST-DDR2 CKD phosphorylated by src and its mutant proteins of Y740F and Y736/740/741F.
As a source of shc protein, total lysate of HSC T6 cells was used. For the preparation of the lysate, 2×10^7 HSC T6 cells were harvested and lysed by sonication in 5 ml of lysis buffer consisting of 20 mM Tris-HCl (pH8.0), 0.1M NaCl, 5 mM DTT, 10 mM NaF, […], 0.02% IGE-PAL (Sigma) and a proteinase inhibitor cocktail pellet (Roche). The supernatant was obtained by centrifugation in 15,000 rpm for 10 min at 4° C. and used for the following shc binding assay. Various GST-DDR2 KD proteins bound to glutathione bead were obtained as described above. […]

Histone H2B = assay: tyrosine kinase activity using Histone H2B as substrate; assay type: biochemical; conditions: reciprocal plotting 1/V vs 1/[ATP]; FIG. 9, FIG. 10
Protocol: The GST-DDR2 CKD was solely expressed or co-expressed with the c-Src protein at the ratio of 1:1 in insect cells; the respective obtained GST-DDR2 CKDs were purified; and the tyrosine kinase activities depending on the concentration of ATP were determined using the same amounts of the tyrosine phosphorylation-induced GST-DDR2 CKD (p-GST-DDR2 CKD by Src) which is obtained by co-expression with the c-Src protein in sf 9 cells and non-phosphorylated GST-DDR2 CKD which is obtained by solely expression in sf9 cells.
All measurements were done in triplicate.
The same amount of each protein as judged by CBB staining was used to measure its in vitro tyrosine kinase activity using histone H2B as a substrate as described in materials and methods and their tyrosine kinase activities were shown by autoradiography. Negative stands for a kinase reaction without kinase protein as a control.
Measurement of DDR2 tyrosine kinase activity towards heterologous peptide substrates was performed using 100 ng of the purified kinase protein in 20 ul of reaction mixture containing 20 mM Tris-HCl, pH 8.0, 5 mM MgCl2, 0.5 mM dithiothreitol, 0.01 mM ATP. […] The spotted filter was washed with 0.1M Tris-HCl (pH 8.0) five times for 10 min each and the radioactivity of each spot was visualized and quantitated using BAS image analyzer (Kodak).

Row | Molecule | level of tyrosine phosphorylation of GST-DDR2 CKD against the ratio of the two baculoviruses (western blot, phosphorylated tyrosine specific antibody) [1] | shc binding after in vitro autophosphorylation reaction (shc protein; autophosphorylation at 30° C. for 15 min, FIG. 15, FIG. 16) | shc binding before in vitro autophosphorylation (shc protein; mock-autophosphorylation with gamma-S-ATP, FIG. 15) | Km value for ATP compared with the non-phosphorylated control protein (Histone H2B) | Vmax compared with the non-phosphorylated control protein (Histone H2B)
1 | full-length human c-Src tyrosine kinase | The tyrosine phosphorylation at the DDR2 cytosolic tyrosine kinase domain was meaningfully induced, when the DDR2 kinase expression virus and the c-Src protein expression virus are co-expressed even at the ratio of 19:1 |  |  |  | 
2 | B1 |  | significantly increased | some shc binding | decreased | increased

— patent US20120270234A1, “DDR2 PROTEIN WITH ACTIVATED KINASE ACTIVITY AND PREPARATION METHOD THEREOF” (KOREA INSTITUTE OF SCIENCE AND TECHNOLOGY, priority 2003, published 2012)
